In one assay the target is 人PD-L1重组蛋白 (human) (UniProt Q9NZQ7). Nature of the assay: Biacore SPR, AHC capture of antibody, PD-L1 as analyte 0.78125-12.5 nM.
Assay [1] deals with MAB-BA-231细胞表面人PD-L1 (human) (UniProt Q9NZQ7). The experiment in a line: FACS on cells carrying human PD-L1.
The target of assay [2] is T1, 人PD-L1重组蛋白 (human, UniProt Q9NZQ7 19-238).
T1 construct: also called 重组人PD-L1; 液相中游离PD-L1
Nature of the assay: ELISA, inhibition of recombinant human PD-L1 binding to PD-1. In general terms: ELISA stands for enzyme-linked immunosorbent assay.

In assay [3] the target is T1, 人PD-L1重组蛋白. Nature of the assay: Biacore SPR, AHC capture of antibody, PD-L1 as analyte 0.78125-12.5 nM. In general terms: In SPR one partner is held on a chip, and binding of the other changes the refractive index at the surface.
In a further assay the target is T2, MAB-BA-231细胞表面人PD-L1 (human, UniProt Q9NZQ7 19-290).
T2 construct: whole, on cells; also called 人PD-L1高表达细胞株(MBA-MA-231)
T2 sequence (Q9NZQ7 19-290): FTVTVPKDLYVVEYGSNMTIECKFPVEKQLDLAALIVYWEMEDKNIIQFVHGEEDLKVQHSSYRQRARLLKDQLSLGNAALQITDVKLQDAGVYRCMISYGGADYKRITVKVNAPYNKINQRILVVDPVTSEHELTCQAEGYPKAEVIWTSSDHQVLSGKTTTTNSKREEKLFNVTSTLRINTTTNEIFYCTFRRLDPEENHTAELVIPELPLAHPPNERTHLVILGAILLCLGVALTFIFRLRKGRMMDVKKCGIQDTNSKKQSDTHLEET
The experiment in a line: FACS on MAB-BA-231 cells carrying human PD-L1.

In the next assay the target is T3, B7H3重组蛋白 (UniProt Q5ZPR3 29-461, limits assumed).
T3 sequence (looked up): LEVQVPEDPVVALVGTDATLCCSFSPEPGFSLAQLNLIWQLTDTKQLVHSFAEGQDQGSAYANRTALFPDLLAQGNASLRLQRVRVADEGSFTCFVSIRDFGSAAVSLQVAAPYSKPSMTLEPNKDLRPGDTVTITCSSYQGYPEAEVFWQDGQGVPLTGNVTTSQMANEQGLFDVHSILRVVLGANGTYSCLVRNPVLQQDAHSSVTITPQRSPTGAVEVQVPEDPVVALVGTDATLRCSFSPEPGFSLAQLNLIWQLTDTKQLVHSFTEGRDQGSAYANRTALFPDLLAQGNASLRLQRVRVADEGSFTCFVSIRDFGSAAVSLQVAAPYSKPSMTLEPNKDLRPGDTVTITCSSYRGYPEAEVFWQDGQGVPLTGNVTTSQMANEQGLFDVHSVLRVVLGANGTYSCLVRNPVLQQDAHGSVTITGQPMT
Nature of the assay: ELISA on recombinant proteins.

The target in another assay is T4, B7H4重组蛋白 (UniProt Q7Z7D3 29-258, limits assumed).
T4 sequence (looked up): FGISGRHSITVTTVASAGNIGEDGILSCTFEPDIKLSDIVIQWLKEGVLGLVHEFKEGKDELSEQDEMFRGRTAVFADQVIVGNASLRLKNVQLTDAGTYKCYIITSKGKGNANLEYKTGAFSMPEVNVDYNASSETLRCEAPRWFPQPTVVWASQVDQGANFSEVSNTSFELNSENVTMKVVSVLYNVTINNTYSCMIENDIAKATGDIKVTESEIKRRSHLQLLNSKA
Nature of the assay: ELISA on recombinant proteins.

The target in the next assay is T5, PD-1重组蛋白 (UniProt Q15116 25-167, limits assumed).
T5 construct: also called 受体PD-1
T5 sequence (Q15116 25-167 limits assumed): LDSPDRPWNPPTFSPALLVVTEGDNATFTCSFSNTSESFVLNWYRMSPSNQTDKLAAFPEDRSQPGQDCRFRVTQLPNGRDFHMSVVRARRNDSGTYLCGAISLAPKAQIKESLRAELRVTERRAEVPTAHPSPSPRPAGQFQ
Nature of the assay: ELISA on recombinant proteins.

In another assay the target is T6, ICOS重组蛋白 (UniProt Q9Y6W8 21-140, limits assumed).
T6 sequence (looked up): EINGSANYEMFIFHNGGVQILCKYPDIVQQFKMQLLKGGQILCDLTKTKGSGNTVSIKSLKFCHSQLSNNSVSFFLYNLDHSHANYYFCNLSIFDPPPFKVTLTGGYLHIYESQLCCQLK
Nature of the assay: ELISA on recombinant proteins.

Another assay has as its target CD28重组蛋白 (UniProt P10747 19-152, limits assumed). The experiment in a line: ELISA on recombinant proteins.
In another assay the target is T7, CTLA4重组蛋白 (UniProt P16410 36-161, limits assumed).
T7 sequence (looked up): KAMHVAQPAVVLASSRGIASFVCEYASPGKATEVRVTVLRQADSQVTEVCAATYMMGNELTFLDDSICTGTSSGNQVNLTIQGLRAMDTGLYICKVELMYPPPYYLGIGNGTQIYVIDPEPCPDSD
The experiment in a line: ELISA on recombinant proteins.

The next assay addresses His标签人PD-L1抗原 (human) (UniProt Q9NZQ7). The experiment in a line: ELISA, His-tagged human PD-L1 coated at 2.0 μg/mL; ratio = EC50 of chimeric antibody C1 (chC1) / EC50 of humanised antibody x 100%.
The next assay has as its target 生物素化的PD-L1抗原 (UniProt Q9NZQ7). Nature of the assay: competition ELISA, biotinylated PD-L1 on streptavidin, competitor PD-1 mFc 2.0 μg/mL; ratio = IC50 of chimeric antibody / IC50 of humanised antibody x 100%.

Numbering of substitutions follows the chain as printed.

T1 sequence (Q9NZQ7 19-238 limits assumed): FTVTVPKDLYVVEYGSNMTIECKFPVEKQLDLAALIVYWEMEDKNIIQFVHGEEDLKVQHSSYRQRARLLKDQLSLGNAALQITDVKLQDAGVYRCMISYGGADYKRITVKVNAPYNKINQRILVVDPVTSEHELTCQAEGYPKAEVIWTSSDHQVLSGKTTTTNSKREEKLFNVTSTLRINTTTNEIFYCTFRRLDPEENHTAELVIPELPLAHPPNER
Sequence of CD28重组蛋白 (P10747 19-152 limits assumed): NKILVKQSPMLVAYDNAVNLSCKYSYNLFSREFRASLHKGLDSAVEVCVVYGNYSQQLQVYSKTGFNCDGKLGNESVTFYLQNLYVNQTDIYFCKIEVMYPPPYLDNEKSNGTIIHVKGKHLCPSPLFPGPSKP

Take 对照抗体KN035 (Envafolimab) (Fc fusion): in the assay with 人PD-L1重组蛋白 (human), the Ka came out at 2.47e+09 M⁻¹ and the Kd (as a rule, the constant that tells how readily two partners part at equilibrium) amounted to 405 pM. Also, in [1], the EC50 (usually the concentration needed to bring the measured effect to its halfway point) was 8.8 ng/mL.

B1: 单域嵌合抗体(VHH-hFc)chC1 (Fc fusion)
heavy: QVQLQESGGGSVQTGGSLRLSCAASGAAPCMAWFRQAPGKEREGVAASVRGGLSPYYADSVKGRFTISHDIPKNTMYLQMNSLQPDDTALYYCAARATFYRCEGDASSYTYWGQGTQVTVSS
notes: VHH of C1 cloned upstream of the human IgG1 Fc gene and expressed in 293F cells; also called 嵌合抗体chC1; 嵌合抗体C1; not shown: Fc segment of the human IgG1 heavy chain constant region
With B1, the IC50 (usually the midpoint of a concentration-inhibition curve) in the assay with 人PD-L1重组蛋白 [2] stood at 590 ng/mL. This molecule yielded a Ka in the assay with 人PD-L1重组蛋白 [3] of 3.16e+09 M⁻¹. The molecule also registered a Kd with 人PD-L1重组蛋白 [3] of 317 pM. For the same molecule, the koff (in general, a measure of how fast the partners let go of each other) with 人PD-L1重组蛋白 [3] was determined as 0.000462 s⁻¹. The kon (commonly a measure of how fast the partners come together) in the assay with 人PD-L1重组蛋白 [3] was determined as 1.46e+06 M⁻¹ s⁻¹. Besides, the EC50 with MAB-BA-231细胞表面人PD-L1 came out at 8.1 ng/mL. Besides, the binding result in the assay with B7H3重组蛋白, with B7H4重组蛋白, with PD-1重组蛋白, with ICOS重组蛋白, in the assay with CD28重组蛋白 and in the assay with CTLA4重组蛋白 was “no binding” each time.

B2: 人源化抗PD-L1单域抗体C1-hu1 (Fc fusion, not shown: a dimerising Fc or GST)
heavy: EVQLLESGGGLVQPGGSLRLSCAASGAAPCMAWFRQAPGKGLEGVSASVRGGLSPYYADVKGRFTISHDIPKNTMYLQMNSLRAEDTAVYYCAARATFYRCEGDASSYTYWGQGTLVTVSS
In the case of B2, in the assay with His标签人PD-L1抗原 (human), the 相对结合活性，% turned out to be 45.5%. Further, the 相对竞争抑制活性，% in the assay with 生物素化的PD-L1抗原 worked out at 53.4%.

B3: 人源化抗PD-L1单域抗体C1-hu15 (Fc fusion, not shown: a dimerising Fc or GST)
heavy: B2 heavy with L5V, G41E, L42R, S46A, I70N, P71S
For the molecule B3, in the assay with 生物素化的PD-L1抗原, the 相对竞争抑制活性，% is 68.1%.

B4: 人源化抗PD-L1单域抗体C1-hu16 (Fc fusion, not shown: a dimerising Fc or GST)
heavy: B2 heavy with L5V, G41E, L42R, S46A
For the molecule B4, the 相对结合活性，% in the assay with His标签人PD-L1抗原 (human) turned out to be 76.6%. In addition, the 相对竞争抑制活性，% in the assay with 生物素化的PD-L1抗原 is 107%.

B5: 人源化抗PD-L1单域抗体C1-hu11 (Fc fusion, not shown: a dimerising Fc or GST)
heavy: B2 heavy with L5V, L42R, S46A
For B5, the 相对结合活性，% with His标签人PD-L1抗原 (human) amounted to 81.3%. Further, the 相对竞争抑制活性，% with 生物素化的PD-L1抗原 stood at 89.1%.

B6: 人源化抗PD-L1单域抗体C1-hu2 (Fc fusion, not shown: a dimerising Fc or GST)
heavy: B2 heavy with M75L
For the molecule B6, the 相对结合活性，% with His标签人PD-L1抗原 (human) came out at 56.5%. Besides, in the assay with 生物素化的PD-L1抗原, the 相对竞争抑制活性，% worked out at 73.3%.

B7: 人源化抗PD-L1单域抗体C1-hu5 (Fc fusion, not shown: a dimerising Fc or GST)
heavy: B2 heavy with L5V
For the molecule B7, the 相对结合活性，% with His标签人PD-L1抗原 (human) was determined as 62.5%. Also, in the assay with 生物素化的PD-L1抗原, the 相对竞争抑制活性，% is 61.7%.

(Values after CN115246884A (SHANGHAI JUNSHI BIOSCIENCES CO LTD; JUNMENG BIOSCIENCES CO …, dated 2022).)
